Experimental data from patent US20150344570A1 (published 2015).

T1: FcγRIIb, extracellular domain with C-terminal His tag (human, UniProt P31994 43-217)
T1 construct: extracellular domain; also called FcgRIIb; 2b; not shown: His tag at the C terminus
T1 sequence (looked up): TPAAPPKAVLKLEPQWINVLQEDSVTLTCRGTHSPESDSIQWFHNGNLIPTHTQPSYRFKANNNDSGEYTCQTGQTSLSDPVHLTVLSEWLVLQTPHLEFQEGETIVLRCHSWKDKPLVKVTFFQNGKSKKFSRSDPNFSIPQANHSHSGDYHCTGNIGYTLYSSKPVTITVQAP

T2: FcγRIIa H (FcγRIIa, allotype with His at position 131), extracellular domain with C-terminal His tag (human, UniProt P12318 34-217)
T2 construct: extracellular domain; also called FcgRIIa H; 2aH; not shown: His tag at the C terminus
T2 sequence (looked up): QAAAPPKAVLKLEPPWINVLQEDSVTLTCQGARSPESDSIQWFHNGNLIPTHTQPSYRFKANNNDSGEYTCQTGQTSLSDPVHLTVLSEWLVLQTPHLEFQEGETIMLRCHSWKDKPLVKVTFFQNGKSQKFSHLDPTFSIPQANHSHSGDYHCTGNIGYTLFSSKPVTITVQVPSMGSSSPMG


Assays:
[1] = biological target: T1, FcγRIIb, extracellular domain with …; assay: SPR (Biacore), relative binding vs GpH7-A5/GpH7-B3/GpL16-k0
[2] = biological target: T2, FcγRIIa H (FcγRIIa, allotype with His …); assay: as above
[3] = biological target: T2, FcγRIIa H (FcγRIIa, allotype with His …); assay: SPR (Biacore); He/Con_2aH divided by He/Con_2b (FcγRIIb)

Row | He/Con_2b [1] | He/Con_2aH [2] | He_2aH/2b (IIaH/IIb) [3] [ratio] | Binder
1 | 193 % of HeCon Ab (=100) | 90 % of HeCon Ab (=100) | 0.47 | GpH7-A5/GpH7-B3 variant L328_15Y/GpL16-k0 (antibody, human IgG1, kappa, Heterodimerized anti-glypican-3 IgG1; mutation in one H chain only; also called He Ab) heavy 1: not shown heavy 2: not shown light: DIVMTQSPLSLPVTPGEPASISCQASESLVHSNRNTYLHWYLQKPGQSPQLLIYKVSNRFSGVPDRFSGSGSGTDFTLKISRVEAEDVGVYYCSQNTHVPPTFGQGTKVEIERTVAAPSVFIFPPSDEQLKSGTASVVCLLNNFYPREAKVQWKVDNALQSGNSQESVTEQDSKDSTYSLSSTLTLSKADYEKHKVYACEVTHQGLSSPVTKSFNRGEC
2 | 142 % of HeCon Ab (=100) | 104 % of HeCon Ab (=100) | 0.73 | GpH7-A5/GpH7-B3 variant L328_06M/GpL16-k0 (antibody, human IgG1, kappa, Heterodimerized anti-glypican-3 IgG1; mutation in one H chain only; also called He Ab) heavy 1: not shown heavy 2: not shown light: DIVMTQSPLSLPVTPGEPASISCQASESLVHSNRNTYLHWYLQKPGQSPQLLIYKVSNRFSGVPDRFSGSGSGTDFTLKISRVEAEDVGVYYCSQNTHVPPTFGQGTKVEIERTVAAPSVFIFPPSDEQLKSGTASVVCLLNNFYPREAKVQWKVDNALQSGNSQESVTEQDSKDSTYSLSSTLTLSKADYEKHKVYACEVTHQGLSSPVTKSFNRGEC
3 | 119 % of HeCon Ab (=100) | 82.5 % of HeCon Ab (=100) | 0.7 | GpH7-A5/GpH7-B3 variant P331_03V/GpL16-k0 (antibody, human IgG1, kappa, Heterodimerized anti-glypican-3 IgG1; mutation in one H chain only; also called He Ab) heavy 1: not shown heavy 2: not shown light: DIVMTQSPLSLPVTPGEPASISCQASESLVHSNRNTYLHWYLQKPGQSPQLLIYKVSNRFSGVPDRFSGSGSGTDFTLKISRVEAEDVGVYYCSQNTHVPPTFGQGTKVEIERTVAAPSVFIFPPSDEQLKSGTASVVCLLNNFYPREAKVQWKVDNALQSGNSQESVTEQDSKDSTYSLSSTLTLSKADYEKHKVYACEVTHQGLSSPVTKSFNRGEC
4 | 65.1 % of HeCon Ab (=100) | 45.4 % of HeCon Ab (=100) | 0.7 | GpH7-A5/GpH7-B3 variant L328_05P/GpL16-k0 (antibody, human IgG1, kappa, Heterodimerized anti-glypican-3 IgG1; mutation in one H chain only; also called He Ab) heavy 1: not shown heavy 2: not shown light: DIVMTQSPLSLPVTPGEPASISCQASESLVHSNRNTYLHWYLQKPGQSPQLLIYKVSNRFSGVPDRFSGSGSGTDFTLKISRVEAEDVGVYYCSQNTHVPPTFGQGTKVEIERTVAAPSVFIFPPSDEQLKSGTASVVCLLNNFYPREAKVQWKVDNALQSGNSQESVTEQDSKDSTYSLSSTLTLSKADYEKHKVYACEVTHQGLSSPVTKSFNRGEC
5 | 199 % of HeCon Ab (=100) | 58.5 % of HeCon Ab (=100) | 0.29 | GpH7-A5/GpH7-B3 variant L328_09D/GpL16-k0 (antibody, human IgG1, kappa, Heterodimerized anti-glypican-3 IgG1; mutation in one H chain only; also called He Ab) heavy 1: not shown heavy 2: not shown light: DIVMTQSPLSLPVTPGEPASISCQASESLVHSNRNTYLHWYLQKPGQSPQLLIYKVSNRFSGVPDRFSGSGSGTDFTLKISRVEAEDVGVYYCSQNTHVPPTFGQGTKVEIERTVAAPSVFIFPPSDEQLKSGTASVVCLLNNFYPREAKVQWKVDNALQSGNSQESVTEQDSKDSTYSLSSTLTLSKADYEKHKVYACEVTHQGLSSPVTKSFNRGEC
6 | 99.5 % of HeCon Ab (=100) | 41.2 % of HeCon Ab (=100) | 0.41 | GpH7-A5/GpH7-B3 variant N325_15Y/GpL16-k0 (antibody, human IgG1, kappa, Heterodimerized anti-glypican-3 IgG1; mutation in one H chain only; also called He Ab) heavy 1: not shown heavy 2: not shown light: DIVMTQSPLSLPVTPGEPASISCQASESLVHSNRNTYLHWYLQKPGQSPQLLIYKVSNRFSGVPDRFSGSGSGTDFTLKISRVEAEDVGVYYCSQNTHVPPTFGQGTKVEIERTVAAPSVFIFPPSDEQLKSGTASVVCLLNNFYPREAKVQWKVDNALQSGNSQESVTEQDSKDSTYSLSSTLTLSKADYEKHKVYACEVTHQGLSSPVTKSFNRGEC
7 | 172 % of HeCon Ab (=100) | 55.5 % of HeCon Ab (=100) | 0.32 | GpH7-A5/GpH7-B3 variant L328_10E/GpL16-k0 (antibody, human IgG1, kappa, Heterodimerized anti-glypican-3 IgG1; mutation in one H chain only; also called He Ab) heavy 1: not shown heavy 2: not shown light: DIVMTQSPLSLPVTPGEPASISCQASESLVHSNRNTYLHWYLQKPGQSPQLLIYKVSNRFSGVPDRFSGSGSGTDFTLKISRVEAEDVGVYYCSQNTHVPPTFGQGTKVEIERTVAAPSVFIFPPSDEQLKSGTASVVCLLNNFYPREAKVQWKVDNALQSGNSQESVTEQDSKDSTYSLSSTLTLSKADYEKHKVYACEVTHQGLSSPVTKSFNRGEC
8 | 169 % of HeCon Ab (=100) | 47.2 % of HeCon Ab (=100) | 0.28 | GpH7-A5/GpH7-B3 variant N325_20W/GpL16-k0 (antibody, human IgG1, kappa, Heterodimerized anti-glypican-3 IgG1; mutation in one H chain only; also called He Ab) heavy 1: not shown heavy 2: not shown light: DIVMTQSPLSLPVTPGEPASISCQASESLVHSNRNTYLHWYLQKPGQSPQLLIYKVSNRFSGVPDRFSGSGSGTDFTLKISRVEAEDVGVYYCSQNTHVPPTFGQGTKVEIERTVAAPSVFIFPPSDEQLKSGTASVVCLLNNFYPREAKVQWKVDNALQSGNSQESVTEQDSKDSTYSLSSTLTLSKADYEKHKVYACEVTHQGLSSPVTKSFNRGEC
9 | 160 % of HeCon Ab (=100) | 93.9 % of HeCon Ab (=100) | 0.59 | GpH7-A5/GpH7-B3 variant L328_07I/GpL16-k0 (antibody, human IgG1, kappa, Heterodimerized anti-glypican-3 IgG1; mutation in one H chain only; also called He Ab) heavy 1: not shown heavy 2: not shown light: DIVMTQSPLSLPVTPGEPASISCQASESLVHSNRNTYLHWYLQKPGQSPQLLIYKVSNRFSGVPDRFSGSGSGTDFTLKISRVEAEDVGVYYCSQNTHVPPTFGQGTKVEIERTVAAPSVFIFPPSDEQLKSGTASVVCLLNNFYPREAKVQWKVDNALQSGNSQESVTEQDSKDSTYSLSSTLTLSKADYEKHKVYACEVTHQGLSSPVTKSFNRGEC
